Measurements published in article PMC4889933 (Nucleic Acids Research, 2016).

B1: KuΔexCter, Ku_(Bsub) truncated of the extended Cter (M18 to P277 of NP_389224.1), N-terminal His6 (domain or fragment, B. subtilis 168, UniProt O34859 18-277, looked up)
chain: MHTMWKGSISFGLVNIPIKLYAATEDKDIKLRSLHKEDHAPIKYEKVCTNCEKTLSPDEIVKGYEYVKGKYVVLTDEDLKSLKQEHEEKAVEIVDFVQLQEIDPIYFNRSYFVGPGDNGTKAYTLLREALRSTGKIGIANMTIRSKQQLAILRVYENCIVMESIHYPDEVRSAAQVPGVPDQSNVNDKELQTAITLIDELTAKFEPEKYEDTYRQALLQRVNDKLENKETAVTPDKAPPREDVIDLVSALQASIDRTRRP
B2: Ku core, Ku_(Bsub) truncated of the entire C-terminal domain (M18 to P256 of NP_389224.1), N-terminal His6 (domain or fragment, B. subtilis 168, UniProt O34859 18-256, looked up)
chain: MHTMWKGSISFGLVNIPIKLYAATEDKDIKLRSLHKEDHAPIKYEKVCTNCEKTLSPDEIVKGYEYVKGKYVVLTDEDLKSLKQEHEEKAVEIVDFVQLQEIDPIYFNRSYFVGPGDNGTKAYTLLREALRSTGKIGIANMTIRSKQQLAILRVYENCIVMESIHYPDEVRSAAQVPGVPDQSNVNDKELQTAITLIDELTAKFEPEKYEDTYRQALLQRVNDKLENKETAVTPDKAPP

What was measured:
[1] = target: T1, LigD protein of B. subtilis (LigD_(Bsub)), C-terminal His6 (B. subtilis, UniProt O34398 1-611); assay: SPR
T1 sequence (looked up): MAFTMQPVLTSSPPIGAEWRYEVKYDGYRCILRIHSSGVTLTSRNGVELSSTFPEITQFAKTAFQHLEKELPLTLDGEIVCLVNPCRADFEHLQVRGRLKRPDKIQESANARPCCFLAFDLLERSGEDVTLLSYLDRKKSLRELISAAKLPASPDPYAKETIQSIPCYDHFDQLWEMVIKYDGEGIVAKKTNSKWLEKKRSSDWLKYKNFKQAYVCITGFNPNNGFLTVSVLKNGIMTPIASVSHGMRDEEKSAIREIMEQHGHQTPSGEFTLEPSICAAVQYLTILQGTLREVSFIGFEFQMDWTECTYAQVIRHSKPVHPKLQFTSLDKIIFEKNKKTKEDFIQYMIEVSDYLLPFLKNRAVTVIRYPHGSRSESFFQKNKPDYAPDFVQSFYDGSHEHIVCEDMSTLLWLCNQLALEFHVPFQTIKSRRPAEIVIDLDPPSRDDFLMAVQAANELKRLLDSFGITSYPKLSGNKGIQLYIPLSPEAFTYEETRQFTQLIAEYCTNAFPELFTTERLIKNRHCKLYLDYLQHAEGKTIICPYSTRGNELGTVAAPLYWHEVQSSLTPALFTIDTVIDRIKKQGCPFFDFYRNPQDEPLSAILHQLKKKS

[2] = target: the molecule itself; assay: cross-linking

| Binder | Kd [1] | stoichiometry N [2] |
| --- | --- | --- |
| B1 | 11 µM | 2 |
| B2 |  | 2 |
